Source: patent publication US20210261665A1 (TAYU HUAXIA BIOTECH MEDICAL GROUP, published 2021)

Experiments:
hPD-1 mIg fusion protein = molecular target: T1, hPD-1 mIg fusion protein (human; mouse, UniProt Q15116 25-170); assay: SPR Biacore T100, hPD-1mIg immobilised by amine coupling, antibody as analyte
T1 construct: extracellular domain; not shown: CH2-CH3 domain of mouse IgG2a heavy chain (plasmid pmIgG)
Procedure: Binding affinity and kinetics determination of the humanized antibodies: The binding affinity and kinetics of the humanized PD-1 mAbs interact with hPD-1 protein was assessed with Biacore T100 (GE Healthcare Life Sciences). […] Nine different concentrations were tested for each sample. Detailed binding kinetic parameters (association rate, Ka, dissociation rate, Kd, and affinity constant, KD) can be determined by full kinetic analysis.

[1] = molecular target: T2, mPD-1 protein (ELISA coat) (mouse, UniProt Q02242 25-167, limits assumed); assay: ELISA against mPD-1 ECD-Fc protein (plate coat)
T2 sequence (looked up): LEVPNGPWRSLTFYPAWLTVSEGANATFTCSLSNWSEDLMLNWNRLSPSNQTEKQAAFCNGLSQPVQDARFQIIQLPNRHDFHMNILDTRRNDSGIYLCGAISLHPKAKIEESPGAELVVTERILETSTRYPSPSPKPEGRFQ
Procedure: (§1) The bindings of the antibodies to hPD-1 and the cross-reactivity to mPD-1 proteins were tested by ELISA. A serial dilution of test antibodies were added to ELISA plates pre-coated with 1 μg/ml hPD-1 or mPD-1. HRP conjugated goat anti-human IgG or goat anti-mouse IgG antibody was then added, followed by the addition of substrate Tetramethylbenzidine (TMB) and quantification with a SpectraMax Plus 384 Microplate Reader (Molecular Device, LLC., Sunnyvale, Calif.) at 450 nm wavelength.

Biotin-hPD-1 [2] = molecular target: T3, Biotin-hPD-1 (human, UniProt Q15116 25-167, limits assumed, biotin label, site not stated); assay: competitive ELISA: competitive Ab 15 µg/ml with Biotin-hPD-1; coating Ab TY101-4G1 1 µg/ml
Procedure: (§2) A serial dilution of competing antibodies and Biotin-hPD-1 were added to ELISA plates pre-coated with 1 μg/ml a test antibody. HRP conjugated streptavidin was then added, followed by the addition of substrate TMB and quantification with a SpectraMax Plus 384 Microplate Reader at 450 nm wavelength.

Biotin-hPD-1 [3] = molecular target: T3, Biotin-hPD-1; assay: competitive ELISA: competitive Ab 15 µg/ml with Biotin-hPD-1; coating Ab Pembrolizumab 1 µg/ml
Procedure: as §2

Biotin-hPD-1 [4] = molecular target: T3, Biotin-hPD-1; assay: competitive ELISA: competitive Ab 15 µg/ml with Biotin-hPD-1; coating Ab Nivolumab 1 µg/ml
Procedure: as §2

[5] = molecular target: T4, cynomolgus monkey PD-1 on cells (cynomolgus monkey, UniProt B0LAJ3 25-288); assay: flow cytometry on CHOK1-cPD-1 cells
T4 construct: also called cPD-1; CHOK1-cPD-1

human PD-1 on cells [6] = molecular target: T5, human PD-1 on cells (human, UniProt Q15116 25-288); assay: cell based RBA (flow cytometry): blocking of Biotin-hPD-L1 binding to CHOK1-hPD-1 cells
T5 construct: whole, on cells; also called hPD-1; CHO/hPD-1
Procedure: (§3) The cells were then incubated with Alexa 488 labeled Streptavidin and analyzed using a FACSCanto II.

human PD-1 on cells [7] = molecular target: T5, human PD-1 on cells; assay: cell based RBA (flow cytometry): blocking of Biotin-hPD-L2 binding to CHOK1-hPD-1 cells
Procedure: as §3

[8] = molecular target: hPD-1 protein (ELISA coat) (human, UniProt Q15116 25-167, limits assumed); assay: ELISA against hPD-1 ECD-Fc protein (plate coat)
Procedure: as §1

human PD-1 on cells [9] = molecular target: T5, human PD-1 on cells; assay: flow cytometry on CHOK1-hPD-1 cells
Biotin-hPD-1 [10] = molecular target: T3, Biotin-hPD-1; assay: competitive ELISA: competitive Ab 15 µg/ml with Biotin-hPD-1; coating Ab TY101-04-T3-05 1 µg/ml
Procedure: as §2

Biotin-hPD-1 [11] = molecular target: T3, Biotin-hPD-1; assay: competitive ELISA: competitive Ab 15 µg/ml with Biotin-hPD-1; coating Ab TY101-01-09 1 µg/ml
Procedure: as §2

T3 sequence (Q15116 25-167 limits assumed): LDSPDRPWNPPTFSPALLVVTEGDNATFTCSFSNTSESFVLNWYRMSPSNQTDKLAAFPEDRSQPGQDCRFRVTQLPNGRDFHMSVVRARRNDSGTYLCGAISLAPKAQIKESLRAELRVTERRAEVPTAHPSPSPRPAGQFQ
Chain of hPD-1 protein (ELISA coat) (Q15116 25-167 limits assumed): as above
T5 sequence (Q15116 25-288): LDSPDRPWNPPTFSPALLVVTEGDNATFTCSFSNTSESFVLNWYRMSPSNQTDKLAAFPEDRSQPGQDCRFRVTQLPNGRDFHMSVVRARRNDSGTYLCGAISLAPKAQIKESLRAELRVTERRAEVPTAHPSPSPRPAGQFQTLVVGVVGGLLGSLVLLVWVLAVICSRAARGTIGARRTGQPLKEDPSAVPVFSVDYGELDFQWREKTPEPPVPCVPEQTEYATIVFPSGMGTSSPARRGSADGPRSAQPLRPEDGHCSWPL
T4 sequence (B0LAJ3 entry or part of it limits assumed): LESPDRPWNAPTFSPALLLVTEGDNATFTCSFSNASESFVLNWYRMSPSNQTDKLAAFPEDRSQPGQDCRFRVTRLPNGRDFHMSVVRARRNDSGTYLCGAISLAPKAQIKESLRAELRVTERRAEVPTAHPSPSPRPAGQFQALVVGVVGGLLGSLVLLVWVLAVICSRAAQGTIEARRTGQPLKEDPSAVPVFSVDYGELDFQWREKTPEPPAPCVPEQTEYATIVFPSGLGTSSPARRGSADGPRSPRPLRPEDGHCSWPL
T1 sequence (Q15116 25-170): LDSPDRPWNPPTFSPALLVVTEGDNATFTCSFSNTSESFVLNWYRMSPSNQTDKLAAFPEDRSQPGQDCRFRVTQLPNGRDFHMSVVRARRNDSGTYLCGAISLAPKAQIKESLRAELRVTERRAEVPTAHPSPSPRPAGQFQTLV

B1: Variant 2 (antibody, V domains shown)
VH: EVQLVESGGGLVQPGGSLRLSCAASGFTFSSYTMSWVRQAPGKGLEWVSYISHGGGDTYYADSVKGRFTISRDNSKNTLYLQMNSLRAEDTAVYYCARHSGYERGYYYVMDYWGQGTLVTVSS
VL: DIVMTQSPDSLAVSLGERATINCKASESVDYYGFSFLNWFQQKPGQPPKLLIYAASNRESGVPDRFSGSGSGTDFTLTISSLQAEDVAVYYCQQSKEVPWTFGQGTKLEIKR
notes: Humanized; VH variant a, VK variant b; Constant regions not spelled out; chimeric parent has human IgG4-S228P and human kappa; also called mutant combination 2
- Kd (hPD-1 mIg fusion protein): 0.363 nM
- koff (hPD-1 mIg fusion protein): 7.64e-05 s⁻¹
- kon (hPD-1 mIg fusion protein): 210000 M⁻¹ s⁻¹

B2: Variant 5 (antibody, V domains shown)
VH: EVQLVESGGGLVQPGGSLRLSCAASGFTFSSYTMSWVRQAPGKGLEWVSYISHGGGDTYYPDSVKGRFTISRDNSKNTLYLQMNSLRAEDTAVYYCARHSGYERGYYYVMDYWGQGTLVTVSS
VL: DIVMTQSPDSLAVSLGERATINCKASESVDYYGFSFLNWFQQKPGQPPKLLIYAASNRESGVPDRFSGSGSGTDFTLTISSLQAEDVAVYYCQQSKEVPWTFGQGTKLEIKR
notes: Humanized; VH variant b, VK variant b; Constant regions not spelled out; chimeric parent has human IgG4-S228P and human kappa; also called mutant combination 5
- Kd (hPD-1 mIg fusion protein): 0.329 nM
- koff (hPD-1 mIg fusion protein): 6.94e-05 s⁻¹
- kon (hPD-1 mIg fusion protein): 211000 M⁻¹ s⁻¹

B3: TY101-01-09 (antibody, V domains shown)
VH: EVQLVESGGGLVQPGGSLRLSCAASGFTFSSYTMSWVRQAPGKGLEWVSYISHGGGDTYYADSVKGRFTISRDNSKNTLYLQMNSLRAEDTAVYYCARHSGYERGYYYVMDYWGQGTLVTVSS
VL: DIQLTQSPDSLSVSLGERATINCKASESVDYYGFSFLNWFQQKPGQPPKLLIYAASNRQSGVPDRFSGSGSGTDFTLTISSLQAEDVAVYFCQQSKEVPWTFGQGTKLEIKR
notes: Compared with isotype control hIgG4; also called TY101 clone TY101-01-09
- Max OD450 [1]: 0.71
- binding result [1]: no binding (tested: 100 nM)
- Inhibition (%) (Biotin-hPD-1 [2]): 95%
- Inhibition (%) (Biotin-hPD-1 [3]): 93%
- Inhibition (%) (Biotin-hPD-1 [4]): 93%
- EC50 [5]: 1.13 nM
- Max MFI [5]: 21100
- IC50 (human PD-1 on cells [6]): 1.15 nM
- Inhibition rate (human PD-1 on cells [6]): 99.5%
- IC50 (human PD-1 on cells [7]): 1.76 nM
- Inhibition rate (human PD-1 on cells [7]): 95.4%
- EC50 [8]: 0.13 nM
- Max OD450 [8]: 3.01
- EC50 (human PD-1 on cells [9]): 0.78 nM
- Max MFI (human PD-1 on cells [9]): 23200
- Inhibition (%) (Biotin-hPD-1 [10]): 94%
- Inhibition (%) (Biotin-hPD-1 [11]): 94%

B4: Variant 8 (antibody, V domains shown)
VH: EVKLLESGGGLVQPGGSLRLSCAASGFTFSSYTMSWVRQAPGKGLEWVSYISHGGGDTYYPDSVKGRFTISRDNSKNTLYLQMNSLRAEDTAVYYCARHSGYERGYYYVMDYWGKGTTVTVSS
VL: DIVMTQSPDSLAVSLGERATINCKASESVDYYGFSFLNWFQQKPGQPPKLLIYAASNRESGVPDRFSGSGSGTDFTLTISSLQAEDVAVYYCQQSKEVPWTFGQGTKLEIK
notes: Humanized; VH variant c, VK variant b; Constant regions not spelled out; also called mutant combination 8
- Kd (hPD-1 mIg fusion protein): 0.358 nM
- koff (hPD-1 mIg fusion protein): 7.95e-05 s⁻¹
- kon (hPD-1 mIg fusion protein): 222000 M⁻¹ s⁻¹

B5: TY101-4G1 (antibody, V domains shown)
VH: EVQLVESGGGLVQPGGSLRLSCAASGFTFSSYTMSWVRQAPGKGLEWVSYISHGGGDTYYADSVKGRFTISRDNSKNTLYLQMNSLRAEDTAVYYCARHSGYERGYYYVMDYWGQGTLVTVSS
VL: DIQLTQSPDSLSVSLGERATINCKASESVDYYGFSFLNWFQQKPGQPPKLLIYAASNRQSGVPDRFSGSGSGTDFTLTISSLQAEDVAVYFCQQSKEVPWTFGQGTKLEIKR
notes: also called TY101 clone TY101-4G1
- Max OD450 [1]: 1.33
- binding result [1]: no binding (tested: 100 nM)
- Inhibition (%) (Biotin-hPD-1 [2]): 95%
- Inhibition (%) (Biotin-hPD-1 [3]): 94%
- Inhibition (%) (Biotin-hPD-1 [4]): 94%
- EC50 [5]: 1.46 nM
- Max MFI [5]: 20700
- IC50 (human PD-1 on cells [6]): 1.47 nM
- Inhibition rate (human PD-1 on cells [6]): 99.5%
- IC50 (human PD-1 on cells [7]): 2.33 nM
- Inhibition rate (human PD-1 on cells [7]): 94.7%
- EC50 [8]: 0.15 nM
- Max OD450 [8]: 3.01
- EC50 (human PD-1 on cells [9]): 0.94 nM
- Max MFI (human PD-1 on cells [9]): 23700
- Inhibition (%) (Biotin-hPD-1 [10]): 94%
- Inhibition (%) (Biotin-hPD-1 [11]): 94%

B6: Variant 1 (antibody, V domains shown)
VH: EVQLVESGGGLVQPGGSLRLSCAASGFTFSSYTMSWVRQAPGKGLEWVSYISHGGGDTYYADSVKGRFTISRDNSKNTLYLQMNSLRAEDTAVYYCARHSGYERGYYYVMDYWGQGTLVTVSS
VL: DIVMTQSPDSLAVSLGERATINCKSSESVDYYGFSFLNWFQQKPGQPPKLLIYAASNRESGVPDRFSGSGSGTDFTLTISSLQAEDVAVYYCQQSKEVPWTFGQGTKLEIKR
notes: Humanized; Constant regions not spelled out for the humanized antibodies; the chimeric parent has human IgG4-S228P and human kappa; also called mutant combination 1
- Kd (hPD-1 mIg fusion protein): 0.293 nM
- koff (hPD-1 mIg fusion protein): 6.15e-05 s⁻¹
- kon (hPD-1 mIg fusion protein): 210000 M⁻¹ s⁻¹

B7: Variant 6 (antibody, V domains shown)
VH: EVQLVESGGGLVQPGGSLRLSCAASGFTFSSYTMSWVRQAPGKGLEWVSYISHGGGDTYYPDSVKGRFTISRDNSKNTLYLQMNSLRAEDTAVYYCARHSGYERGYYYVMDYWGQGTLVTVSS
VL: DIQLTQSPDSLSVSLGERATINCKASESVDYYGFSFLNWFQQKPGQPPKLLIYAASNRQSGVPDRFSGSGSGTDFTLTISSLQAEDVAVYFCQQSKEVPWTFGQGTKLEIKR
notes: Humanized; VH variant b, VK variant c; Constant regions not spelled out; chimeric parent has human IgG4-S228P and human kappa; also called mutant combination 6
- Kd (hPD-1 mIg fusion protein): 0.0898 nM
- koff (hPD-1 mIg fusion protein): 2.23e-05 s⁻¹
- kon (hPD-1 mIg fusion protein): 248000 M⁻¹ s⁻¹

B8: Variant 4 (antibody, V domains shown)
VH: EVQLVESGGGLVQPGGSLRLSCAASGFTFSSYTMSWVRQAPGKGLEWVSYISHGGGDTYYPDSVKGRFTISRDNSKNTLYLQMNSLRAEDTAVYYCARHSGYERGYYYVMDYWGQGTLVTVSS
VL: DIVMTQSPDSLAVSLGERATINCKSSESVDYYGFSFLNWFQQKPGQPPKLLIYAASNRESGVPDRFSGSGSGTDFTLTISSLQAEDVAVYYCQQSKEVPWTFGQGTKLEIKR
notes: Humanized; VH variant b, VK variant a; Constant regions not spelled out; chimeric parent has human IgG4-S228P and human kappa; also called mutant combination 4
- Kd (hPD-1 mIg fusion protein): 0.338 nM
- koff (hPD-1 mIg fusion protein): 6.29e-05 s⁻¹
- kon (hPD-1 mIg fusion protein): ~186000 M⁻¹ s⁻¹

B9: Variant 9 (antibody, V domains shown)
VH: EVKLLESGGGLVQPGGSLRLSCAASGFTFSSYTMSWVRQAPGKGLEWVSYISHGGGDTYYPDSVKGRFTISRDNSKNTLYLQMNSLRAEDTAVYYCARHSGYERGYYYVMDYWGKGTTVTVSS
VL: DIQLTQSPDSLSVSLGERATINCKASESVDYYGFSFLNWFQQKPGQPPKLLIYAASNRQSGVPDRFSGSGSGTDFTLTISSLQAEDVAVYFCQQSKEVPWTFGQGTKLEIK
notes: Humanized; VH variant c, VK variant c; Constant regions not spelled out; also called mutant combination 9
- Kd (hPD-1 mIg fusion protein): 0.123 nM
- koff (hPD-1 mIg fusion protein): 3.2e-05 s⁻¹
- kon (hPD-1 mIg fusion protein): 259000 M⁻¹ s⁻¹

B10: Variant 7 (antibody, V domains shown)
VH: EVKLLESGGGLVQPGGSLRLSCAASGFTFSSYTMSWVRQAPGKGLEWVSYISHGGGDTYYPDSVKGRFTISRDNSKNTLYLQMNSLRAEDTAVYYCARHSGYERGYYYVMDYWGKGTTVTVSS
VL: DIVMTQSPDSLAVSLGERATINCKSSESVDYYGFSFLNWFQQKPGQPPKLLIYAASNRESGVPDRFSGSGSGTDFTLTISSLQAEDVAVYYCQQSKEVPWTFGQGTKLEIK
notes: Humanized; VH variant c, VK variant a; Constant regions not spelled out; also called mutant combination 7
- Kd (hPD-1 mIg fusion protein): 0.291 nM
- koff (hPD-1 mIg fusion protein): 6.48e-05 s⁻¹
- kon (hPD-1 mIg fusion protein): 218000 M⁻¹ s⁻¹

B11: chimeric parental antibody (antibody, human IgG4 S228P, kappa, V domains shown)
VH: EVKLVESGGGLVQPGGSLKLSCAASGFTFSSYTMSWIRQTPEKRLEWVAYISHGGGDTYYPDTVKGRFTISRDNAKNTLYLQMSSLKSEDTAMYYCARHSGYERGYYYVMDYWGQGTSVTVSS
VL: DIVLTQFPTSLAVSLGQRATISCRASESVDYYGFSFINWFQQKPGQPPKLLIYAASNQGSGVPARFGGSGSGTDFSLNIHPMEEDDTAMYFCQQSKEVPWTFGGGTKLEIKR
notes: also called chimeric antibody
- Kd (hPD-1 mIg fusion protein): 0.0989 nM
- koff (hPD-1 mIg fusion protein): 2.85e-05 s⁻¹
- kon (hPD-1 mIg fusion protein): 288000 M⁻¹ s⁻¹
